Assay in all cases: IEDB peptide-MHC binding, purified MHC/competitive/radioactivity; filed as Kd, often an IC50 or EC50 that approximates it; ≥ and ≤ were set here for values at or beyond the usual limits of such assays
Common to all, as to details: source organism: Toxoplasma gondii

For experiment [1], the target named is HLA-A*68:02.
In experiment [2] the target is HLA-A*02:03.
For experiment [3], the target named is HLA-A*02:01.
Experiment [4] deals with HLA-A*02:02.
For experiment [5], the target named is HLA-A*02:06.

This is an account of results in the Immune Epitope Database (IEDB).

For orientation: Kd means a measure of binding affinity in units of concentration. Take FLTDYIPGA: the Kd in experiment [1] was found to be 2100 nM; in experiment [2] it was 7.8 nM; in experiment [3], 0.7 nM; in experiment [4], 7.1 nM; in experiment [5] it was 1.2 nM.

FLLGLLVHV: the Kd worked out at 173 nM in experiment [1]; 4.6 nM in experiment [2]; 6.4 nM in experiment [3]; 37 nM in experiment [4]; 9.9 nM in experiment [5].

Consider FLSLSLLVI, for which the Kd in experiment [1] is 9830 nM; in experiment [2] it was 83 nM; in experiment [3] it was 736 nM; in experiment [4], 173 nM; in experiment [5] it was not below 10000 nM.

On to FMIVSISLV, for which the Kd in experiment [1] is 48 nM; in experiment [2] it was not above 1 nM; in experiment [3] it was 16 nM; in experiment [4], 1.8 nM; in experiment [5], 6.2 nM.

For GLAAAVVAV, the Kd in experiment [1] was determined as 263 nM; in experiment [2] it was 1.3 nM; in experiment [3], 9.6 nM; in experiment [4], 31 nM; in experiment [5], 55 nM.

Take ITMGSLFFV: the Kd turned out to be 1.1 nM in experiment [1]; 0.5 nM in experiment [2]; 0.16 nM in experiment [3]; 0.64 nM in experiment [4]; 0.26 nM in experiment [5].

With FVIFACNFV, the Kd is 1.2 nM in experiment [1]; 6.5 nM in experiment [2]; 34 nM in experiment [3]; 11 nM in experiment [4]; 5.6 nM in experiment [5].

As for FMIAFISCFA, the Kd in experiment [1] came out at 397 nM; in experiment [2] it was 56 nM; in experiment [3] it was 32 nM; in experiment [4], 56 nM; in experiment [5], 112 nM.
